Results: publication PMC4119988 (British Journal of Cancer, 2014)

Molecular target: OTU domain-containing protein 1 (Homo sapiens (Human)., UniProt Q5VV17)
Test: far-Western, overlay or dot blot

OTU domain-containing protein 1, sequence (Q5VV17 whole entry, the tested form may be a part): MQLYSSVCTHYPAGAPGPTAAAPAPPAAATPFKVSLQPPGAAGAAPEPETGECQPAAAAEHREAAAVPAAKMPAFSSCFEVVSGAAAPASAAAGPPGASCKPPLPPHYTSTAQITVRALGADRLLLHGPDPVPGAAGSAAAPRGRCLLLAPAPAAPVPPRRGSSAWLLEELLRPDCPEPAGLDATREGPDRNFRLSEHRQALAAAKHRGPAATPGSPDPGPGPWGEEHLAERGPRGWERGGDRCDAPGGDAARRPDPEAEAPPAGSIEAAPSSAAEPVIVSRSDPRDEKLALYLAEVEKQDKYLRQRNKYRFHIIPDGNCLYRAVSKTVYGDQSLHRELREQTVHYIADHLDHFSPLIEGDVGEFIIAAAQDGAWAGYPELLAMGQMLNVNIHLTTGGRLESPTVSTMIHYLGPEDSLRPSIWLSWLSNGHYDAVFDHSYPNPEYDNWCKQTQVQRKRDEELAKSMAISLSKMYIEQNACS

binding result: binds
B1: scFv-C1 (scFv, V domains shown)
VH: EVQLLESGGGLVQPGGSLGLSCVASGFTFSDRWMSWVRQAPGKGLEWVAKIKQDGSEKLYVDSVKGRFTIPRDNSKNSLYLQMDSLRAEDTAVYYCVRGAGWLLDHWGQGILVTVSS
VL: SYVLTQPPSVSVAPGKTARITCGGNNIGRKSVHWYQQKPGQAPVLVVYDDSDRPSGIPERFSGSNSGNTATLTISRVEAGDEADYYCQVWDSSSDHSNWVFGGGTQLTVL
